US20090220535A1 (REGENTS OF THE UNIVERSITY OF COLORADO, published 2009)

Target: T1, HPV11 L1 protein (human papillomavirus type 11, UniProt P04012 1-501)
T1 construct: Full-length HPV11 L1 DNA amplified from pVL11L1
T1 sequence: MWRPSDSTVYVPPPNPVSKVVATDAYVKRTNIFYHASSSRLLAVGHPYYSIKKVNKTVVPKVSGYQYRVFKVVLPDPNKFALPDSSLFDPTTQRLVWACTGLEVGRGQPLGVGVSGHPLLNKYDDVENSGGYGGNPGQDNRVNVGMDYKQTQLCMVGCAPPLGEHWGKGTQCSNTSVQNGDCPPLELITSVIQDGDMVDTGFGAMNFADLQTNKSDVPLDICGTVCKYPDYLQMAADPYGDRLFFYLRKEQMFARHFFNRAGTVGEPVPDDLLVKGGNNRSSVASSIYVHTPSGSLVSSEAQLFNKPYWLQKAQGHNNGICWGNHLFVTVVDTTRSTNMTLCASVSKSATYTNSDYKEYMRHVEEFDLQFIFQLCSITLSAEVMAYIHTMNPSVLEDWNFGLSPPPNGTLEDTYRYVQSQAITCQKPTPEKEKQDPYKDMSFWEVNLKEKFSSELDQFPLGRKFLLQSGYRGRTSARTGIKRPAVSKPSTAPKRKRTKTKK
Assay: co-expression, glutathione sepharose eluate, densitometry

Chain of COPV1 GST-L2 fusion protein, L2 amino acids 360-513 (P08515 whole entry, the tested form may be a part): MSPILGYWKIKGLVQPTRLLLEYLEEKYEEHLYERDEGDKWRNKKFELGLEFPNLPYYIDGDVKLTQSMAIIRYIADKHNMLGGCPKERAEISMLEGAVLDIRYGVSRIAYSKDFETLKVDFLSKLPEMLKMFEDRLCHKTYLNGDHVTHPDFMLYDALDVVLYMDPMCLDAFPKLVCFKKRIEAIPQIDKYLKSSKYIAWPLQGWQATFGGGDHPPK
Chain of HPV12 GST-L2 fusion protein, L2 amino acids 360-518 (P08515 whole entry, the tested form may be a part): as above

Molecule	L1:L2	binding result
HPV11 GST-L2 (313-455) double mutant AL417-418EE (other, The text says 'changed to glutamines' but prints EE and speaks of negatively charged residues; also called pXA/BN-HPV11L2/313-455/AL417418EE; not shown: N-terminal GST fusion partner and its thrombin linker (vector pXA/BN with the pGEX-4T-2 cloning site)) GARIHYFQDISPVTQAAEEIELHPLVAAENDTFDIYAEPFDPIPDPVQHSVTQSYLTSTPNTLSQSWGNTTVPLSIPSDWFVQSGPDITFPTASMGTPFSPVTPEEPTGPVFITGSDFYLHPTWYFARRRRKRIPLFFTDVAA	0.33 L1:L2 ratio	–
HPV11 GST-L2 (313-455) mutant P413A (other, also called pXA/BN-HPV11L2/313-455/P413A; not shown: N-terminal GST fusion partner and its thrombin linker (vector pXA/BN with the pGEX-4T-2 cloning site)) GARIHYFQDISPVTQAAEEIELHPLVAAENDTFDIYAEPFDPIPDPVQHSVTQSYLTSTPNTLSQSWGNTTVPLSIPSDWFVQSGPDITFPTASMGTPFSAVTPALPTGPVFITGSDFYLHPTWYFARRRRKRIPLFFTDVAA	–	binds
HPV11 GST-L2 (313-455) mutant P416A (other, also called pXA/BN-HPV11L2/313-455/P416A; not shown: N-terminal GST fusion partner and its thrombin linker (vector pXA/BN with the pGEX-4T-2 cloning site)) GARIHYFQDISPVTQAAEEIELHPLVAAENDTFDIYAEPFDPIPDPVQHSVTQSYLTSTPNTLSQSWGNTTVPLSIPSDWFVQSGPDITFPTASMGTPFSPVTAALPTGPVFITGSDFYLHPTWYFARRRRKRIPLFFTDVAA	–	binds
HPV11 GST-L2 (313-455) mutant A417E (other, also called pXA/BN-HPV11L2/313-455/A417E; not shown: N-terminal GST fusion partner and its thrombin linker (vector pXA/BN with the pGEX-4T-2 cloning site)) GARIHYFQDISPVTQAAEEIELHPLVAAENDTFDIYAEPFDPIPDPVQHSVTQSYLTSTPNTLSQSWGNTTVPLSIPSDWFVQSGPDITFPTASMGTPFSPVTPELPTGPVFITGSDFYLHPTWYFARRRRKRIPLFFTDVAA	1 L1:L2 ratio	–
HPV11 GST-L2 (313-455) mutant L418E (other, not shown: N-terminal GST fusion partner and its thrombin linker (vector pXA/BN with the pGEX-4T-2 cloning site)) GARIHYFQDISPVTQAAEEIELHPLVAAENDTFDIYAEPFDPIPDPVQHSVTQSYLTSTPNTLSQSWGNTTVPLSIPSDWFVQSGPDITFPTASMGTPFSPVTPAEPTGPVFITGSDFYLHPTWYFARRRRKRIPLFFTDVAA	–	binds
HPV11 GST-L2 (313-455) mutant P419A (other, also called pXA/BN-HPV11L2/313-455/P419A; not shown: N-terminal GST fusion partner and its thrombin linker (vector pXA/BN with the pGEX-4T-2 cloning site)) GARIHYFQDISPVTQAAEEIELHPLVAAENDTFDIYAEPFDPIPDPVQHSVTQSYLTSTPNTLSQSWGNTTVPLSIPSDWFVQSGPDITFPTASMGTPFSPVTPALATGPVFITGSDFYLHPTWYFARRRRKRIPLFFTDVAA	–	binds

Target: T1, HPV11 L1 protein
Assay: co-expression in E. coli, glutathione sepharose eluate, SDS-PAGE
Procedure: The lysates were then treated with 10 units/ml DNAse I in the presence of 5 mM MgCl2 for 30 minutes. […] Lysates were briefly sonicated, then centrifuged at 17,000 G for one hour and the supernatant was passed over a 10 mL bed volume glutathione sepharose column. […] The columns were washed with buffer L (40 mM Tris-Cl, pH 8.0, 0.2 M NaCl, 1 mM EDTA, 2 mM DTT) until no protein was detectable in the wash (approximately 20 bed volumes). To purify L1+GST-L2 complexes, bound proteins were eluted with 10 mM reduced glutathione in buffer L. The eluates were concentrated using Centriplus concentrators (Amicon). To further purify L1+L2 complexes from contaminating bacterial proteins, free L2 and L2 degradation products, eluted proteins were subjected to size exclusion fast pressure chromatography (FPLC) using a HiLoad Superdex 200 gel filtration column (Pharmacia). FPLC fractions containing complexes were pooled and further concentrated as outlined above. Protein complexes were analyzed by SDS-PAGE followed by Coomassie blue staining or immunoblotting. For densitometric analysis on Coomassie-stained gels, images were captured using a fluor-S MultiImager (Bio-Rad) with Quantity One software (BioRad) and quantitated using ImageQuant software (Molecular Dynamics). Using this strategy, L1 will be present upon elution from glutathione-sepharose only if it is bound to GST-L2.
The ability of each L2 protein to bind HPV11 L1 was determined by the presence or absence of L1 in the eluate from the glutathione sepharose column as measured by SDS-PAGE.

Molecule	binding result
HPV11 GST-L2 fusion protein, L2 amino acids 157-309 (other, also called pXA/BN-HPV11L2/157-309; not shown: glutathione-S-transferase (GST) fusion partner from vector pXA/BN (multiple cloning site of pGEX-4T-2); thrombin-cleavab) PLFTEPSVIQPQPPVEASGHILISAPTITSQHVEDIPLDTFVVSSSDSGPTSSTPLPRAFPRPRVGLYSRALQQVQVTDPAFLSTPQRLVTYDNPVYEGEDVSLQFTHESIHNAPDEAFMDIIRLHRPAITSRRGLVRFSRIGQRGSMYTRSG	no binding
HPV11 GST-L2 fusion protein, L2 amino acids 396-455 (other, also called pXA/BN-HPV11L2/396-455; not shown: glutathione-S-transferase (GST) fusion partner from vector pXA/BN (multiple cloning site of pGEX-4T-2); thrombin-cleavab) SGPDITFPTASMGTPFSPVTPALPTGPVFITGSDFYLHPTWYFARRRRKRIPLFFTDVAA	binds
HPV11 GST-L2 fusion protein, L2 amino acids 1-156 (other, also called pXA/BN-HPV11L2/1-156; not shown: glutathione-S-transferase (GST) fusion partner from vector pXA/BN (multiple cloning site of pGEX-4T-2); thrombin-cleavab) MKPRARRRKRASATQLYQTCKATGTCPPDVIPKVEHTTIADQILKWGSLGVFFGGLGIGTGAGSGGRAGYIPLGSSPKPAITGGPAARPPVLVEPVAPSDPSIVSLIEESAIINAGAPEVVPPTQGGFTITSSESTTPAILDVSVTNHTTTSVFQN	no binding
SGPDITFPTASMGTPFSPVTPALPTGPVFITGSDFYLHPTWYFA (other, also called pXA/BN-HPV11L2/396-439; not shown: glutathione-S-transferase (GST) fusion partner from vector pXA/BN (multiple cloning site of pGEX-4T-2); thrombin-cleavab) [HPV11 GST-L2 fusion protein, L2 amino acids 396-439]	binds
HPV11 GST-L2 fusion protein, L2 amino acids 346-455 (other, also called pXA/BN-HPV11L2/346-455; not shown: glutathione-S-transferase (GST) fusion partner from vector pXA/BN (multiple cloning site of pGEX-4T-2); thrombin-cleavab) DIYAEPFDPIPDPVQHSVTQSYLTSTPNTLSQSWGNTTVPLSIPSDWFVQSGPDITFPTASMGTPFSPVTPALPTGPVFITGSDFYLHPTWYFARRRRKRIPLFFTDVAA	binds
HPV11 GST-L2 fusion protein, L2 amino acids 1-455 (full length) (other, also called pXA/BN-HPV11 L2; not shown: glutathione-S-transferase (GST) fusion partner from vector pXA/BN (multiple cloning site of pGEX-4T-2); thrombin-cleavab) MKPRARRRKRASATQLYQTCKATGTCPPDVIPKVEHTTIADQILKWGSLGVFFGGLGIGTGAGSGGRAGYIPLGSSPKPAITGGPAARPPVLVEPVAPSDPSIVSLIEESAIINAGAPEVVPPTQGGFTITSSESTTPAILDVSVTNHTTTSVFQNPLFTEPSVIQPQPPVEASGHILISAPTITSQHVEDIPLDTFVVSSSDSGPTSSTPLPRAFPRPRVGLYSRALQQVQVTDPAFLSTPQRLVTYDNPVYEGEDVSLQFTHESIHNAPDEAFMDIIRLHRPAITSRRGLVRFSRIGQRGSMYTRSGQHIGARIHYFQDISPVTQAAEEIELHPLVAAENDTFDIYAEPFDPIPDPVQHSVTQSYLTSTPNTLSQSWGNTTVPLSIPSDWFVQSGPDITFPTASMGTPFSPVTPALPTGPVFITGSDFYLHPTWYFARRRRKRIPLFFTDVAA	binds
HPV11 GST-L2 fusion protein, L2 amino acids 157-455 (other, also called pXA/BN-HPV11L2/157-455; not shown: glutathione-S-transferase (GST) fusion partner from vector pXA/BN (multiple cloning site of pGEX-4T-2); thrombin-cleavab) PLFTEPSVIQPQPPVEASGHILISAPTITSQHVEDIPLDTFVVSSSDSGPTSSTPLPRAFPRPRVGLYSRALQQVQVTDPAFLSTPQRLVTYDNPVYEGEDVSLQFTHESIHNAPDEAFMDIIRLHRPAITSRRGLVRFSRIGQRGSMYTRSGQHIGARIHYFQDISPVTQAAEEIELHPLVAAENDTFDIYAEPFDPIPDPVQHSVTQSYLTSTPNTLSQSWGNTTVPLSIPSDWFVQSGPDITFPTASMGTPFSPVTPALPTGPVFITGSDFYLHPTWYFARRRRKRIPLFFTDVAA	binds
HPV11 GST-L2 fusion protein, L2 amino acids 346-439 (other, also called pXA/BN-HPV11L2/346-439; not shown: glutathione-S-transferase (GST) fusion partner from vector pXA/BN (multiple cloning site of pGEX-4T-2); thrombin-cleavab) DIYAEPFDPIPDPVQHSVTQSYLTSTPNTLSQSWGNTTVPLSIPSDWFVQSGPDITFPTASMGTPFSPVTPALPTGPVFITGSDFYLHPTWYFA	binds
HPV11 GST-L2 fusion protein, L2 amino acids 1-309 (other, also called pXA/BN-HPV11L2/1-309; not shown: glutathione-S-transferase (GST) fusion partner from vector pXA/BN (multiple cloning site of pGEX-4T-2); thrombin-cleavab) MKPRARRRKRASATQLYQTCKATGTCPPDVIPKVEHTTIADQILKWGSLGVFFGGLGIGTGAGSGGRAGYIPLGSSPKPAITGGPAARPPVLVEPVAPSDPSIVSLIEESAIINAGAPEVVPPTQGGFTITSSESTTPAILDVSVTNHTTTSVFQNPLFTEPSVIQPQPPVEASGHILISAPTITSQHVEDIPLDTFVVSSSDSGPTSSTPLPRAFPRPRVGLYSRALQQVQVTDPAFLSTPQRLVTYDNPVYEGEDVSLQFTHESIHNAPDEAFMDIIRLHRPAITSRRGLVRFSRIGQRGSMYTRSG	no binding
HPV11 GST-L2 fusion protein, L2 amino acids 313-400 (other, also called pXA/BN-HPV11L2/313-400; not shown: glutathione-S-transferase (GST) fusion partner from vector pXA/BN (multiple cloning site of pGEX-4T-2); thrombin-cleavab) GARIHYFQDISPVTQAAEEIELHPLVAAENDTFDIYAEPFDPIPDPVQHSVTQSYLTSTPNTLSQSWGNTTVPLSIPSDWFVQSGPDI	no binding

Target: HPV11 L1 protein (human papillomavirus type 11) (UniProt P04012)
Assay: co-expression, glutathione sepharose eluate, densitometry of Coomassie-stained SDS-PAGE

Molecule	L1:L2
COPV1 GST-L2 fusion protein, L2 amino acids 360-513 (from UniProt P08515 1-218)	< 1 L1:L2 ratio
HPV5 GST-L2 fusion protein, L2 amino acids 376-518 (from UniProt P06918 376-518)	< 1 L1:L2 ratio
HPV12 GST-L2 fusion protein, L2 amino acids 360-518 (from UniProt P08515 1-218)	< 1 L1:L2 ratio

Target: T1, HPV11 L1 protein
Assay: as above

Molecule	L1:L2
HPV33 GST-L2 fusion protein, L2 amino acids 319-467 (other, also called HPV33 L2; not shown: glutathione-S-transferase (GST) fusion partner from vector pXA/BN (multiple cloning site of pGEX-4T-2); thrombin-cleavab) GARIHYYQDLSPIVPLDHTVPNEQYELQPLHDTSTSSYSINDGLYDVYADDVDNVHTPMQHSYSTFATTRTSNVSIPLNTGFDTPVMSGPDIPSPLFPTSSPFVPISPFFPFDTIVVDGADFVLHPSYFILRRRRKRFPYFFTDVRVAA	> 1 L1:L2 ratio
HPV6b GST-L2 fusion protein, L2 amino acids 316-459 (other, also called HPV6b L2; not shown: glutathione-S-transferase (GST) fusion partner from vector pXA/BN (multiple cloning site of pGEX-4T-2); thrombin-cleavab) RIHYFYDISPIAQAAEEIEMHPLVAAQDDTFDIYAESFEPGINPTQHPVTNISDTYLTSTPNTVTQPWGNTTVPLSLPNDPFLQSGPDITFPTAPMGTPFSPVTPALPTGPVFITGSGFYLHPAWYFARKRRKRIPLFFSDVAA	> 1 L1:L2 ratio
HPV16 GST-L2 fusion protein, L2 amino acids 321-473 (other, also called HPV16 L2; not shown: glutathione-S-transferase (GST) fusion partner from vector pXA/BN (multiple cloning site of pGEX-4T-2); thrombin-cleavab) GAKVHYYYDLSTIDPAEEIELQTITPSTYTTTSHAASPTSINNGLYDIYADDFITDTSTTPVPSVPSTSLSGYIPANTTIPFGGAYNIPLVSGPDIPINITDQAPSLIPIVPGSPQYTIIADAGDFYLHPSYYMLRKRRKRLPYFFSDVSLAA	> 1 L1:L2 ratio

Target: T1, HPV11 L1 protein
Assay: co-expression in E. coli, glutathione sepharose eluate, immunoblot and Coomassie densitometry

Molecule	binding result
HPV1a GST-L2 fusion protein, L2 amino acids 347-507 (other, range 347-507; also called HPV1a L2; not shown: glutathione-S-transferase (GST) fusion partner from vector pXA/BN (multiple cloning site of pGEX-4T-2); thrombin-cleavab) GARTHFFYDLSSIAPEDSIELLPLGEHSQTTVISSNLGDTAFIQGETAEDDLEVISLETPQLYSEEELLDTNESVGENLQLTITNSEGEVSILDLTQSRVRPPFGTEDTSLHVYYPNSSKGTPIINPEESFTPLVIIALNNSTGDFELHPSLRKRRKRAYV	no binding
BPV1 GST-L2 fusion protein, L2 amino acids 316-469 (other, range 316-469; Cloned as a BamHI/XhoI fragment; also called BPV1 L2; not shown: glutathione-S-transferase (GST) fusion partner from vector pXA/BN (multiple cloning site of pGEX-4T-2); thrombin-cleavab) GPQLHVRYSLSTIHEDVEAIPYTVDENTQGLAFVPLHEEQAGFEEIELDDFSETHRLLPQNTSSTPVGSGVRRSLIPTQEFSATRPTGVVTYGSPDTYSASPVTDPDSTSPSLVIDDTTTTPIIIIDGHTVDLYSSNYTLHPSLLRKRKKRKHA	no binding
